The values that follow come from PMC9449670 (2022).

Assay [1] addresses T1, Pept 02 (GsMTx4 loop2-derived peptide) (Grammostola spatulata, not fully specified (bridges); printed as Trp-Lys-Cys-Asn-Pro-Asn-Asp-Asp-Lys-Cys; cysteine pairing not given here).
T1 chain: WKCNPNDDKC
In words: inside-out patch clamp dose-response (Hill fit, -50 mV). On the technique in general: In patch-clamp work, channel activity is measured electrically.

Another assay has as its target T2, GsMTx4 (Grammostola spatulata, UniProt Q7YT39, not fully specified).
T2 chain: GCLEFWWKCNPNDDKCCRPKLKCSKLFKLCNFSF
The assay is described as above.

Where no end group is shown, it is not given here.

For orientation: Kd means the concentration at which binding is half-saturated. Low values mean tighter binding, high ones weaker binding.

B1: SAKcaC (stretch-activated BK channel) (protein)
chain: not shown
In the case of B1, the Kd stood at 0.0238 µM in assay [1] and 0.0472 µM with GsMTx4.
